Here are results for one molecule from US20040009147A1 (Human Genome Sciences, published 2004).

This assay concerns the target T1, mouse AIM II (LIGHT), membrane-bound (mouse, UniProt Q9QYH9 1-239).
T1 construct: whole, on cells; On human 293 cells transfected with pmAIM II (flow cytometry); also called mAIM II; pmAIM II-transfected 293 cells
T1 sequence (looked up): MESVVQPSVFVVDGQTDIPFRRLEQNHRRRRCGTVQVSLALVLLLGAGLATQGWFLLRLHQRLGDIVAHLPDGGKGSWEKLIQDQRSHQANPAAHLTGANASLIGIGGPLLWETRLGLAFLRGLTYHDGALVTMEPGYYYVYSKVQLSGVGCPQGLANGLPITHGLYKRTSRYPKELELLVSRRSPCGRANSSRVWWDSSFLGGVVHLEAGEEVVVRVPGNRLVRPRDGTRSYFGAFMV
Briefly: flow cytometry, mouse LTβR-Ig (1 µg in 50 µl) on 293 cells transfected with pmAIM II, FITC goat anti-human IgG. As to the method: Flow cytometric analysis. Human 293 cells (1×10⁶ cells) were transfected with either mouse AIM II pcDNA3 vector (10μg) or mock vector (10 μg) by calcium phosphate methods. After 30 hr of transfection, 293 cells were harvested and stained with 1 μg of mouse LTβR-Ig or the anti-AIM II antibody in 50 μl of PBS supplemented with 5% FBS and 0.02% azide for 30 min at 4° C. The cells were then washed and further incubated with FITC-conjugated anti-human IgG or anti-rabbit IgG for 30 min at 4° C., respectively. Fluorescence was analyzed by a FACSCalibur flow cytometry (Becton Dickinson, Mountain View, Calif.) with Cell Quest software (Becton Dickinson).
(In general: In flow cytometry, cells or beads pass a laser one at a time.)

B1: mouse LTβR-Ig fusion protein (mouse LTβR extracellular domain fused to the Fc portion of human IgG1) (Fc fusion, UniProt P50284 31-223, looked up)
chain: QLVPPYRIENQTCWDQDKEYYEPMHDVCCSRCPPGEFVFAVCSRSQDTVCKTCPHNSYNEHWNHLSTCQLCRPCDIVLGFEEVAPCTSDRKAECRCQPGMSCVYLDNECVHCEEERLVLCQPGTEAEVTDEIMDTDVNCVPCKPGHFQNTSSPRARCQPHTRCEIQGLVEAAPGTSYSDTICKNPPEPGAMLL
notes: extracellular domain; Made in BHK/VP16 cells, purified on Protein A; not shown: Fc portion of human IgG1 (vector pX58)
On to B1, for which the binding result is listed as “binds”.
